Laboratory results reported in the DeepSol protein solubility set.

Assay: soluble on expression in E. coli; label from the status in PepcDB or PDB records

Sequence | soluble on expression in E. coli
DPATVFRLVAAEALTLTGADGTLVAVPADPDASAAEELVIVEVAGAVPAEVEASAIPVQDNAIGQAFRDRAPRRLDVLDGPGLGGPALVLPLRATDTVAGVLVAVQGSGARPFTAEQLEMMTGFADQAAVAWQLASSQRRMSELDILAD | soluble
DPDQFRAIIESPEGAGHVGYQYRRNTGSTMRMVSDVLDERVSLWDFHCDPSGNVIQPGPNVDSRQYLQAAIDYVSSNGGGTITIPAGYTWYLGSYGVGGIAGHSGIIQLRSNVNLNIEGRIHLSPFFDLKPFQVFVGFDNGDPASSGNLENCHIYGHGVVDFGGYEFGASSQLRNGVAFGRSYNCSVTGITFQNGDVTWAITLGWNGYGSNCYVRKCRFINLVNSSVNADHSTVYVNCPYSGVESCYFSMSSSFARNIACSVELHQHDTFYRGSTVNGYCRGAYVVMHAAEAAGAGSYAYNMQVENNIAVIYGQFVILGSDVTATVSGHLNDVIVSGNIVSIGERAAFSAPFGAFIDIGPDNSGASNVQDIQRVLVTGNSFYAPANITDSAAITLRANLNGCTFIANNFDCRYMVYNAPGTTSPVVQNLVWDKSNVIGGTHANQRAGQNLFDMQFASVVNSTIEVQLSCEDLSMFSCILFPASCQLSYSKITVDSAWTKSMSNTAVFEGNQQAGANVYVSYPATVNLTSYNTQGAVPFFSTDTNYAWVTSAYSLSINENLDFSPPATYTNKANGQLVGVGYNEIGGVRSVSVRLMLQRQV | soluble
DPLQILGQLTGQLEQQQTAPSGTSAKAPPANDQQAEFVASILGDTEDTWKALFAQAGKQYRDPKLVLFSGQVNSACGFASAAVGPFYCPADQRVYLDMSFFREMETRFAAAGDFAQAYVIAHEIGHHVQTLLGVSAKVDAARRAGQRMEGDNGLLVRQELQADCLAGVWAYQAQKRLNWLEPGDVEEALNAANAIGDDRLQQQGRGRVVPDSFTHGTSAQRVRWFKIGFAEGEVNRCDTF | not soluble
DQVSSLSSKYAVRLYEIIISWRAAGKTPMFSTMELRERLGMMPDEYQKMELFKRKVLDFAVKQINDKTDISITYEQHKEGRKIVGFTFSILHKIGSKDIPLENQSELFAGMTDLEAGTIRVRAEAYIASLIAKGQNVTKAHRLNILKKAVEERWGFEDVAKDNGAKNPENKNAKVVLNEWEKISNGTRFKDKDGTIWVKDSGMLRTEGTNRWIADSQIAKLFPMLTVMVEEGI | not soluble
DVLAVTSCPSGVAHTFLAAKSLEKAACALGIKIKVETQGANGVINRITEKDIEKAKFVIFAHDVAIKEPERFRKIKVLDVTTKDAMLNATALLQARRVS | not soluble
DVQITQSPSYLAASPGETITLNCRASKSISKYLAWYQEKPGKTNKLLIYSGSTLQSGIPSRFSGSGSGTDFTLTISSLEPEDFAMYFCQQHNEYPYTFGGGTKLEIKRTVAAPSVFIFPPSDEQLKSGTASVVCLLNNFYPREAKVQWKVDNALQSGNSQESVTEQDSKDSTYSLSSTLTLSKADYEKHKVYACEVTHQGLSSPVTKSFNRGEC | soluble
EDLPTARVGVDYTSDSQVGGTLDLGRRFGDNNQFGARVNLVHREGEGAIDNDKRRTTLASLGLDYRGDRFRSSLDFGYQKKTFHGGTMGVNISGVDFIPALPDNSKNYSQKWGYSDIESEFGMAKAEYDLTDSWTVYSALGGQHSHEIGTYSAPKLLNKNGDATVGRLDTNRIIDAISGMGGVRGDFNTGAISHKVNLGYAAQVHTDATAWRMSARNPTTNIYDNHDVAMPDNAYFGGNYHDPLITSRSRTQGWLLSDTLGFFNDKVLFTAAARHQKVVVRNYSNATGLEDTSSRYTQSRWMPTFGLVYKPWEQLSLYANHTEALQPGSVAPTTAANAGQSTGIAHSKQDEVGVKIDYGTIGGSLALFEIKKPNAISDTAGNYGLDGEQRNRGVEMNVFGEPMLGLRLNASTVWLDAKQTKTAEGATDGKDAIGVANFYAVLGAEYDIKPVEGLTATARVNHSGSQYADAANTKKLDSYTTLDLGLRYRMRLNADQNEMIWRVGVTNVTNEKYWSGIDDTGTYLFEGDPRTVRVSMSYDF | not soluble
EEHTIIQAEFYLLPDKRGEFMFDFDGDEIFHVDIEKSETIWRLEEFAKFASFEAQGALANIAVDKANLDVMKERSNNTPDANVAPEVTVLSRSPVNLGEPNILICFIDKFSPPVVNVTWLRNGRPVTEGVSETVFLPRDDHLFRKFHYLTFLPSTDDFYDCEVDHWGLEEPLRKHWEFEE | soluble
EGEPIVEYQVKDLLYDQGVRVELHGKDLVSRVGEMTLDKVYYAFSKFFGLDIVTDYLEVPQDIPPRPPALCPGCPHRSSFIDLKKAITMASFKPNETFISG | not soluble
EGKKIVFISDIHHGPYFERERVADLVRKVNELEPDIIILGGDYVSGDVGYIGACFEELSRLKADMGIFGVTGNHDEWTDYNLTVKCMENAGITVLSNRAEWLEIGDDKIKIAGVDWSTDWYFNSEPYVDPLIKDAEENDFVILVSHTPDLAEELTTDKVDLVLSGHTHGGQITFFGLWAPYVPSFYGQKYRTGIVKTDKTMALVSNGVGNTFLPIRFF | not soluble
EHEKGQKLIKTMDQEIDEVAKIGKTIKKPKTVLFEVAALPDIYSFGNGTFLNEMIETIGAKNVLANEKGWLPVTEEAAIAAKPEVILTNVNYMKDPAKEILARKNWESVPAVQNKEVFEIDNMSSSLPNNHITKALKQMAKAVYPEEYKDLKDE | not soluble
EIGLLLAILLFMKRVTENTRITVATGRLDLTQTGEIAHHDEVLDIPKGVEVYEIEGPFFFGIANRFEEIMNTLGDHPDVRIIRMRHVPFMDSTGMHNLENLIKMSRKEGVSIVLSGVRKDVHEELATAGIVELLGEENVCADIQAALRQAQAIAQGA | not soluble
EIGYYEWAIENDEMHCNSLYKKIFGFSDAHDPTYKEFTSQIFPKDLSVRNNAVQRAILVGGVYNAEYRVRHPNDELRWVKSFGKAIYDEKGKPVKLIGMILD | not soluble
EIVMTQSPATLSVSPGERATLSCRASQSIGNNLHWYQQKPGQAPRLLIYYASQSISGIPARFSGSGSGTEFTLTISSLQSEDFAVYYCQQSNSWPYTFGGGTKVEIK | soluble
EKFPLVLMLEPTHLCNLACSGCGRIREYADTIQQMMSLEECLRSVDECPAPVVTITGGEPFLYTHIYELIPEVLDRGKHVYLCTNGLLLEKALENVKVHPNFYLNVHMDGLEETHDRILERKGTFKVAIEGIRKAKAKGFRVCTNTTIFKDTDLVEIEMLFSLLTDLGVDGILVAPGFDYEAVG | not soluble
EKGFKVVVLESAKVGFGATGRNGGQIVNSYSRDVDVIESRYDQNQAKALCDMIFEGGDIIRGLIDKYDINCDYKQGGLFTALNSKQLKGLEEHKKNWERYGNDQLTLLDAGEVEQAVGTKVYTGGLLDMRGGHIHPLKLALGEAAAFISLGGQIFEQSAVVSIDKGMNPVVKTAQGSVKSK | not soluble
ELLCPAGTLKSMRYAFAYGADAVYAGQPRYSLRVRNNDFDHAQLAEGIAEAHALGKRFYVVVNIAPHNAKLKTFLRDLEPVVAMGPDALIMSDPGLIMLVRQHFPQMPIHLSVQANAVNWAAVQFWRQQGLTRVILSRELSLEEIEEIRQQVPDMELEVFVHGALCMAYSGRCLLSGYINRRDPNQGTCTNACRWEYKAVEGREDELGNVVAREPTLGRGAPTEQVFLLEEGNRPGEPMAAFEDEHGTYIMNSKDLRAVQHVERLARIGVHSLKIEGRTKSHYYVARTAQVYRQAIDDAAAGKPFDRGLMDTLESLAHRGYTEGFLRRHVHDEYQNYQHGHSLSERQQFVGELTGERRDGLAEVEVKNRFQRGDSVELMTPRGNLSLRVEDLRNAAGEAIEVAPGNGHVVYLALPEGLDLCYALLMRDLQPGQDTRQPQAERSGGCAGK | not soluble
EMRNLGGGEILHACPQESLDKPLPCIVFYHGFTSSKLVYSYFAVALAEAGFRVIMPDAPEHGARYQGDEAGRMQRFWPILQQNFREFPALREAIIAEGWLEGERLAVAGASMGGMTALGIMTHHPELNSVACLMGSGYFRSLSQTLFPSPDFDVDSLNEWDVSHQLASLARRPLLLWHGDADDVVPPEETFRLEQALRQGDLAARLTCVWQKGVRHRITPEALATTVAFFQQHL | not soluble
ENLYFQGMKPIHVGLLGLGTVGGGTLTVLRRNAEEITRRAGREIRVVRAAVRNLDKAEALAGGLPLTTNPFDVVDDPEIDIVVELIGGLEPARELVMQAIANGKHVVTANKHLVAKYGNEIFAAAQAKGVMVTFEAAVAGGIPIIKALREGLTANRIEWLAGIINGTSNFILSEMRDKGAAFDDVLKEAQRLGYAEADPTFDIEGIDAAHKLTILSAIAFGIPMQFERAYTEGISQLTREDVRYAEELGYRIKLLGIARRAENGIELRVHPTLIPERRLIANVDGAMNAVLVKGDAVGPTLYYGAGAGSEPTASAVVADLVDVTRLHTADPHHRVPHLAFQPDQLADTPILPMEAVRTAYYLRLRAFDRPGVLADITRILADSSISIDAMVQKEPAEGEEQVDIILLTHVTLEKNVNAAIAKIEALDAVAGKVMRIRLEDLGAK | soluble
EQSSSEIKIVRDEYGMPHIYANDTWHLFYGYGYVVAQDRLFQMEMARRSTQGTVAEVLGKDFVKFDKDIRRNYWPDAIRAQIAALSPEDMSILQGYADGMNAWIDKVNTNPETLLPKQFNTFGFTPKRWEPFDVAMIFVGTMANRFSDSTSEIDNLALLTALKDKYGVSQGMAVFNQLKWLVNPSAPTTIAVQESNYPLKFNQQNSQTAALLPRYDLPAPMLDRPAKGADGALLALAAGKNRETIAAQFAQGGANGLAGY | soluble
EQTALKKVAEMARLADSYVSAWGDEAKVSDETLRRLLTSLGYDTSSDEKLLASAEKKHKKDVLAPVLVLRDGEPVEVELNLGTSARESEFSWRLETEQGEVLEGYLQSQIVRDERAEGGPLVFALPKNLAWGYHKLIISRKRRKTPYEMSLIITPKACFKQEDLNQ | not soluble
ERNKVESTLLDKVLFLETLVDTIPAPVFYKDREGIYRGCNDLFAKMILGIPKEKVAGCSIDEFLEKIPQELGNVYKRTDRQLLQRGGSLIYESRIMCSDGLLRQFLINKAAYRNLNGDMEGLVGVMLDIT | not soluble
ETAADNAAYWSIATTMRSDNSALSAVQDALGLGAAKVDTAYDALESTIEVVKQIKAKLVAAYGVGADRGKIQDEIKQLQEQLKSISESASFSGENWLQASISNSGTPPVAESITKKVVASFTRTGSGNVGVTTVDYTLDSSTVLFDLSGGKLGILDKNAVFVSKTETEVMQTSTTAGKTSQAGYVVEKLSDAQIGALNATTTDTNTDPNLYSNGTDNYLRLAENVWVKATATNPSSGGTTVSPAYRDTGSTDWFYDVSAGTASANRSLGFSVSTLDLGNLDVVAAAMGGFAGGGTTYTGADAIDMMMSFVDKQLEAMTSTASSLGSLQSRISMQENFVSSLMDVIDKGVGRLV | not soluble
EVKLEESGGGLVQPGGSMKLSCATSGFTFSDAWMDWVRQSPEKGLEWVAEIRNKANNHATYYAESVKGRFTISRDDSKRRVYLQMNTLRAEDTGIYYCTGIYYHYPWFAYWGQGTLVTVSAEP | soluble
EVLVTGYQTLSKERSTGAFSKVSTEKLELKRMDNLSSMLEGQVAGYVNGQIRGVTTMNAVANPMVVIDGFPVENTTLDRIGQTTENMPDLNPEDIESVTVLKDAAAASIYGARAANGVIVITTKKAK | not soluble
EVQLQQSGAELVRPGASVKLSCTASGFNIKDDFMHWVKQRPEQGLEWIGRIDPANDNTKYAPKFQDKATIIADTSSNTAYLQLSSLTSEDTAVYYCARREVYSYYSPLDVWGAGTTVTVPSGS | soluble
FASFSNFTLKYHEKRFQQYGYGLMLNDTNFPGGSSGSPLIGKDNKLNSIYFGVLEIYQSGSLARNDIGMSQILRTPQ | not soluble
